{"source": "paper doi:10.1101/245167", "about": "(bioRxiv, 2018)", "binders": {"B1": {"name": "Ska3 (as subunit of the wild-type Ska complex) (natural protein)", "chain": "MDPIRSFCGKLRSLASTLDCETARLQRALDGEESDFEDYPMRILYDLHSEVQTLKDDVNILLDKARLENQEGIDFIKATKVLMEKNSMDIMKIREYFQKYGYSPRVKKNSVHEQEAINSDPELSNCENFQKTDVKDDLSDPPVASSCISEKSPRSPQLSDFGLERYIVSQVLPNPPQAVNNYKEEPVIVTPPTKQSLVKVLKTPKCALKMDDFECVTPKLEHFGISEYTMCLNEDYTMGLKNARNNKSEEAIDTESRLNDNVFATPSPIIQQLEKSDAEYTNSPLVPTFCTPGLKIPSTKNSIALVSTNYPLSKTNSSSNDLEVEDRTSLVLNSDTCFENLTDPSSPTISSYENLLRTPTPPEVTKIPEDILQLLSKYNSNLATPIAIKAVPPSKRFLKHGQNIRDVSNKEN"}}, "test_in_all_cases": "cross-linking", "key": {"[1]": {"biological_target": "T1, Hec1 (as subunit of the wild-type Ndc80 complex) (human, UniProt O14777 1-642)", "T1 sequence": "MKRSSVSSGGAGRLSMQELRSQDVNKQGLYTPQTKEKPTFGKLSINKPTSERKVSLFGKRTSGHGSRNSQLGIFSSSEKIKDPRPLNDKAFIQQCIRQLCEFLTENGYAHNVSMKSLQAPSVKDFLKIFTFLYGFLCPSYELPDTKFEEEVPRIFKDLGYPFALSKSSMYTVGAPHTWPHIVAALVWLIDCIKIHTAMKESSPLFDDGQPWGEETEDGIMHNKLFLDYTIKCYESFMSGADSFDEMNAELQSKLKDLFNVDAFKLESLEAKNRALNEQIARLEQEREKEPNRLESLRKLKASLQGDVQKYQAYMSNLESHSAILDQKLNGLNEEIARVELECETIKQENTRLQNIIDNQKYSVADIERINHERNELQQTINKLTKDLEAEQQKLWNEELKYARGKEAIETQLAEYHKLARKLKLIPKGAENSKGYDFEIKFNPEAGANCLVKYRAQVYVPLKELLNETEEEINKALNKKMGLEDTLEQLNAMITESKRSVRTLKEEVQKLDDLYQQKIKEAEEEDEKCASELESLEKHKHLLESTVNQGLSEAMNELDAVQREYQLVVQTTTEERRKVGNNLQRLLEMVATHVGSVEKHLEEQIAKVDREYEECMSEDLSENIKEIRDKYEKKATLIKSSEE"}, "[2]": {"biological_target": "T2, Nuf2 (as subunit of the wild-type Ndc80 complex) (human, UniProt Q9BZD4 1-464)", "T2 sequence": "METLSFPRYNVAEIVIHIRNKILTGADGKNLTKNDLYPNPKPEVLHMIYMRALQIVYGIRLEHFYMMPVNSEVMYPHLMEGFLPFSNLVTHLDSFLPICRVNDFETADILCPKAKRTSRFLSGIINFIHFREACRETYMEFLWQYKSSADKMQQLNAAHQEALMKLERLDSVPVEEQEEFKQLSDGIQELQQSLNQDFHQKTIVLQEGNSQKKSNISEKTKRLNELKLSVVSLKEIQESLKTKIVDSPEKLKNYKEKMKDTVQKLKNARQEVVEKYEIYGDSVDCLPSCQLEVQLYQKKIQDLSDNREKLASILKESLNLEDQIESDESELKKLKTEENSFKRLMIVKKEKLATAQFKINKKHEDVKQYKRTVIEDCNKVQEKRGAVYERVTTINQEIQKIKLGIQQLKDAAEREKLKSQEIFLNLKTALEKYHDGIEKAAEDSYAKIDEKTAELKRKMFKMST"}, "[3]": {"biological_target": "human Ndc80 complex (Hec1, Nuf2, Spc24-His, Spc25), wild type (human, UniProt O14777;Q9BZD4;Q8NBT2;Q9HBM1)"}, "[4]": {"biological_target": "B1"}}, "data": [{"binder": "B1", "values": [{"measurement": "binding result", "setting": "[1]", "result": "binds"}, {"measurement": "binding result", "setting": "[2]", "result": "binds"}]}, {"binder": "Ska complex^(Ska1 ΔMTBD) (full length Ska2 and Ska3 with Ska1 residues 1-131), without His-tag (complex) chain 1: MASSDLEQLCSHVNEKIGNIKKTLSLRNCGQEPTLKTVLNKIGDEIIVINELLNKLELEIQYQEQTNNSLKELCESLEEDYKDIEHLKENVPSHLPQVTVTQSCVKGSDLDPEEPIKVEEPEPVKKPPKEQ chain 2: MEAEVDKLELMFQKAESDLDYIQYRLEYEIKTNHPDSASEKNPVTLLKELSVIKSRYQTLYARFKPVAVEQKESKSRICATVKKTMNMIQKLQKQTDLELSPLTKEEKTAAEQFKFHMPDL chain 3: MDPIRSFCGKLRSLASTLDCETARLQRALDGEESDFEDYPMRILYDLHSEVQTLKDDVNILLDKARLENQEGIDFIKATKVLMEKNSMDIMKIREYFQKYGYSPRVKKNSVHEQEAINSDPELSNCENFQKTDVKDDLSDPPVASSCISEKSPRSPQLSDFGLERYIVSQVLPNPPQAVNNYKEEPVIVTPPTKQSLVKVLKTPKCALKMDDFECVTPKLEHFGISEYTMCLNEDYTMGLKNARNNKSEEAIDTESRLNDNVFATPSPIIQQLEKSDAEYTNSPLVPTFCTPGLKIPSTKNSIALVSTNYPLSKTNSSSNDLEVEDRTSLVLNSDTCFENLTDPSSPTISSYENLLRTPTPPEVTKIPEDILQLLSKYNSNLATPIAIKAVPPSKRFLKHGQNIRDVSNKEN", "values": [{"measurement": "binding result", "setting": "[3]", "result": "binds"}]}, {"binder": "Spc24-His (as subunit of the wild-type Ndc80 complex) (natural protein) MAAFRDIEEVSQGLLSLLGANRAEAQQRRLLGRHEQVVERLLETQDGAEKQLREILTMEKEVAQSLLNAKEQVHQGGVELQQLEAGLQEAGEEDTRLKASLLQLTRELEELKEIEADLERQEKEVDEDTTVTIPSAVYVAQLYHQVSKIEWDYECEPGMVKGIHHGPSVAQPIHLDSTQLSRKFISDYLWSLVDTEW", "values": [{"measurement": "binding result", "setting": "[4]", "result": "binds"}]}, {"binder": "Spc25 (as subunit of the wild-type Ndc80 complex) (natural protein) MVEDELALFDKSINEFWNKFKSTDTSCQMAGLRDTYKDSIKAFAEKLSVKLKEEERMVEMFLEYQNQISRQNKLIQEKKDNLLKLIAEVKGKKQELEVLTANIQDLKEEYSRKKETISTANKANAERLKRLQKSADLYKDRLGLEIRKIYGEKLQFIFTNIDPKNPESPFMFSLHLNEARDYEVSDSAPHLEGLAEFQENVRKTNNFSAFLANVRKAFTATVYN", "values": [{"measurement": "binding result", "setting": "[4]", "result": "binds"}]}]}
